Results on 3 molecules are retold here after paper PMC8770131, “Structural mechanism for the selective phosphorylation of DNA-loaded MCM double hexamers by the Dbf4-dependent kinase” (Nature Structural & Molecular Biology, 2021).

To fix the notation:
B3: Dbf4 (natural protein, S. cerevisiae)
chain: MVSPTKMIIRSPLKETDTNLKHNNGIAASTTAAGHLNVFSNDNNCNNNNTTESFPKKRSLERLELQQQQHLHEKKRARIERARSIEGAVQVSKGTGLKNVEPRVTPKELLEWQTNWKKIMKRDSRIYFDITDDVEMNTYNKSKMDKRRDLLKRGFLTLGAQITQFFDTTVTIVITRRSVENIYLLKDTDILSRAKKNYMKVWSYEKAARFLKNLDVDLDHLSKTKSASLAAPTLSNLLHNEKLYGPTDRDPRTKRDDIHYFKYPHVYLYDLWQTWAPIITLEWKPQELTNLDELPYPILKIGSFGRCPFIGDRNYDESSYKRVVKRYSRDKANKKYALQLRALFQYHADTLLNTSSVNDQTKNLIFIPHTCNDSTKSFKKWMQEKAKNFEKTELKKTDDSAVQDVRNEHADQTDEKNSILLNETETKEPPLKEEKENKQSIAEESNKYPQRKELAATPKLNHPVLATFARQETEEVPDDLCTLKTKSRQAFEIKASGAHQSNDVATSFGNGLGPTRASVMSKNMKSLSRLMVDRKLGVKQTNGNNKNYTATIATTAETSKENRHRLDFNALKKDEAPSKETGKDSAVHLETNRKPQNFPKVATKSVSADSKVHNDIKITTTESPTASKKSTSTNVTLHFNAQTAQTAQPVKKETVKNSGYCENCRVKYESLEQHIVSEKHLSFAENDLNFEAIDSLIENLRFQI
notes: Dbf4, S. cerevisiae; Subunit as it stands in DDK in the DH-DDK cryo-EM structure; also called Dbf4 subunit of DDK; CBP-Dbf4; source: S. cerevisiae, overexpressed with Cdc7, purified as DDK

Common to all, as to assay: cryo-EM structure; DH loaded with ORC, Cdc6 and Mcm2-7-Cdt1 (96 nM each) on MH-capped ARS1 DNA (8 nM) in buffer B at 30 °C, then 289 nM DDK for 50 min before plunge-freezing; neither crosslinking nor nucleotide analogs
Holding throughout (settings): both partners purified

The target in one assay is T1, Mcm3 (S. cerevisiae, UniProt P24279 1-971).
T1 construct: Mcm3, S. cerevisiae; also called Mcm3 subunit; source: S. cerevisiae, overexpressed as Mcm2-7-Cdt1, purified; in the DNA-loaded double hexamer
T1 sequence (P24279 whole entry): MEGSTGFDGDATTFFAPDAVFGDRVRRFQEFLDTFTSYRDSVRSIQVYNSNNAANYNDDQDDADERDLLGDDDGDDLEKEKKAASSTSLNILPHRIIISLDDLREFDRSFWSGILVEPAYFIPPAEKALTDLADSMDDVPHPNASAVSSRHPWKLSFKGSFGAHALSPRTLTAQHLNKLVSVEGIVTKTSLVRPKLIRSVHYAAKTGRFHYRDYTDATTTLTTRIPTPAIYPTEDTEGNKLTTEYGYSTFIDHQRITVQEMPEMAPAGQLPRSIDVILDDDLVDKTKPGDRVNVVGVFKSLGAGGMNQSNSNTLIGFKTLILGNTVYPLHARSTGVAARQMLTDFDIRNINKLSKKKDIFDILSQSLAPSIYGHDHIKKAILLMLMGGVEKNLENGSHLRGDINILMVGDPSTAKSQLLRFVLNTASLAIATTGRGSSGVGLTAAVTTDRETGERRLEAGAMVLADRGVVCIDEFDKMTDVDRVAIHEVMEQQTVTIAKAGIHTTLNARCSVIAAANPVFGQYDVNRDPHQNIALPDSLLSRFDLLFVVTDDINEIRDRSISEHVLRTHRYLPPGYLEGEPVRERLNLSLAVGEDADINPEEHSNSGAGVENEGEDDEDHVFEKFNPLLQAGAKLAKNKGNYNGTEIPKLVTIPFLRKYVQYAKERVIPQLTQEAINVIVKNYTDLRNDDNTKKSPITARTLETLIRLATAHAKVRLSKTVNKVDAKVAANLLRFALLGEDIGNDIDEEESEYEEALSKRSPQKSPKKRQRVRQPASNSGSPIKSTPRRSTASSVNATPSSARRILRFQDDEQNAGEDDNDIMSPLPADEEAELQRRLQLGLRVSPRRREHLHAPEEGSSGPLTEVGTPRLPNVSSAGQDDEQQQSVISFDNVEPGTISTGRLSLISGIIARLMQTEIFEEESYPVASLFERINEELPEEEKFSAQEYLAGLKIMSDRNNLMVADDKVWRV

The target in the next assay is T2, Mcm4 (S. cerevisiae, UniProt P30665 1-933).
T2 construct: Mcm4, S. cerevisiae; Subunit as it stands in the DH of the cryo-EM structures; modelled from residue 155 in the DDK-engaged model; also called Mcm4 subunit; source: S. cerevisiae, overexpressed as Mcm2-7-Cdt1, purified; in the DNA-loaded double hexamer
T2 sequence: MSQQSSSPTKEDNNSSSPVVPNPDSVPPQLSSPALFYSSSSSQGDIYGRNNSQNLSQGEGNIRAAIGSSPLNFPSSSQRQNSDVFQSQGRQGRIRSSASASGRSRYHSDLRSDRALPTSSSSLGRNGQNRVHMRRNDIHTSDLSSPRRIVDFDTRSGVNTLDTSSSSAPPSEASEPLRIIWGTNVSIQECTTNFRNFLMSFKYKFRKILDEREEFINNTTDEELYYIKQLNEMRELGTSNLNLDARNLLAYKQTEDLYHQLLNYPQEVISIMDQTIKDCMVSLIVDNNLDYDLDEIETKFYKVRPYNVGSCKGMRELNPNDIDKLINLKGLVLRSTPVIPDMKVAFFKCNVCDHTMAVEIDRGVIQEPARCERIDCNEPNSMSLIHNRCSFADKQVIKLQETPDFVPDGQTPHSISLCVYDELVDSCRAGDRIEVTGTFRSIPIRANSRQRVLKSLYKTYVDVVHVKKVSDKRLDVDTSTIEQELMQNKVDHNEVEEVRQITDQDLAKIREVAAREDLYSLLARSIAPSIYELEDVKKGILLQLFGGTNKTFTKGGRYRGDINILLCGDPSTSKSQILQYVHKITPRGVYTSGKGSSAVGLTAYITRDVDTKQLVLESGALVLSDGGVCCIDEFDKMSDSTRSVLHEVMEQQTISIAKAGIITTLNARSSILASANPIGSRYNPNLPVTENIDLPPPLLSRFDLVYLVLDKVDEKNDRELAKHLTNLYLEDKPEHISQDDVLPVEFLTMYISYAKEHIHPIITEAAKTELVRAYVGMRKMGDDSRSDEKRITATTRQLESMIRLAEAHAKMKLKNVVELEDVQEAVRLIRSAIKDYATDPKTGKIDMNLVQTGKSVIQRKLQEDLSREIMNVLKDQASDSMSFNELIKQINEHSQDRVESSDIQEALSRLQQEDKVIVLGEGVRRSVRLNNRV

The target in the assay “Dbf4” is B3.
For another assay, the target named is T3, Mcm2 (S. cerevisiae, UniProt P29469 1-868).
T3 construct: Mcm2, S. cerevisiae; Subunit as it stands in the DH of the cryo-EM structures; also called Mcm2 subunit; source: S. cerevisiae, overexpressed as Mcm2-7-Cdt1, purified; in the DNA-loaded double hexamer
T3 sequence: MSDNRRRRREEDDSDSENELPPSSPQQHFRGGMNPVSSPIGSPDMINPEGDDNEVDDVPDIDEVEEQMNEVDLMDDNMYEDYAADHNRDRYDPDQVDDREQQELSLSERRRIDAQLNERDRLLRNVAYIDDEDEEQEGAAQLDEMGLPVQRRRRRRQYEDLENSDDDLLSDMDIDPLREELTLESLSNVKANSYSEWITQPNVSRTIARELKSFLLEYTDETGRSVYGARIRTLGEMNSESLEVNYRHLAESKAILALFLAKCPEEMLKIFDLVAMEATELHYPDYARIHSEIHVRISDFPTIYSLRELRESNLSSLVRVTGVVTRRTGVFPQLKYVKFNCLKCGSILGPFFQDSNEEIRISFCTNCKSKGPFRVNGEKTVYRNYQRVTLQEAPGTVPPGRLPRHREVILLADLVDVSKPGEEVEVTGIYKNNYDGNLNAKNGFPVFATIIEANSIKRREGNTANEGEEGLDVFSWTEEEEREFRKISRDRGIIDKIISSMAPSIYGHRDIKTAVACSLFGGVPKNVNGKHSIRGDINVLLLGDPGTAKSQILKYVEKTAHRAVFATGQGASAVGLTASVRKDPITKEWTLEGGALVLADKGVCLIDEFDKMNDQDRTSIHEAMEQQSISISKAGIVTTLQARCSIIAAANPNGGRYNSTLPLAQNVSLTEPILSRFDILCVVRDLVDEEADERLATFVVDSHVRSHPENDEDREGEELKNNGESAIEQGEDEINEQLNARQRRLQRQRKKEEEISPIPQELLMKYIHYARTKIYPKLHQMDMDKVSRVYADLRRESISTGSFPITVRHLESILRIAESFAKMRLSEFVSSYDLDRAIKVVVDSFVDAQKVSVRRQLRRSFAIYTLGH

B1: Mcm7 (natural protein, S. cerevisiae)
chain: MSAALPSIQLPVDYNNLFNEITDFLVTFKQDTLSSDATRNENEDENLDAENIEQHLLEKGPKYMAMLQKVANRELNSVIIDLDDILQYQNEKFLQGTQADDLVSAIQQNANHFTELFCRAIDNNMPLPTKEIDYKDDVLDVILNQRRLRNERMLSDRTNEIRSENLMDTTMDPPSSMNDALREVVEDETELFPPNLTRRYFLYFKPLSQNCARRYRKKAISSKPLSVRQIKGDFLGQLITVRGIITRVSDVKPAVEVIAYTCDQCGYEVFQEVNSRTFTPLSECTSEECSQNQTKGQLFMSTRASKFSAFQECKIQELSQQVPVGHIPRSLNIHVNGTLVRSLSPGDIVDVTGIFLPAPYTGFKALKAGLLTETYLEAQFVRQHKKKFASFSLTSDVEERVMELITSGDVYNRLAKSIAPEIYGNLDVKKALLLLLVGGVDKRVGDGMKIRGDINVCLMGDPGVAKSQLLKAICKISPRGVYTTGKGSSGVGLTAAVMKDPVTDEMILEGGALVLADNGICCIDEFDKMDESDRTAIHEVMEQQTISISKAGINTTLNARTSILAAANPLYGRYNPRLSPLDNINLPAALLSRFDILFLMLDIPSRDDDEKLAEHVTYVHMHNKQPDLDFTPVEPSKMREYIAYAKTKRPVMSEAVNDYVVQAYIRLRQDSKREMDSKFSFGQATPRTLLGIIRLSQALAKLRLADMVDIDDVEEALRLVRVSKESLYQETNKSKEDESPTTKIFTIIKKMLQETGKNTLSYENIVKTVRLRGFTMLQLSNCIQEYSYLNVWHLINEGNTLKFVDDGTMDTDQEDSLVSTPKLAPQTTASANVSAQDSDIDLQDA
notes: Mcm7, S. cerevisiae; also called Mcm7 subunit; source: S. cerevisiae, overexpressed as Mcm2-7-Cdt1, purified; in the DNA-loaded double hexamer
B1: the binding result with Mcm3 and in the assay with Mcm4 was “binds” throughout.

B2: Cdc7 (enzyme, S. cerevisiae)
chain: MTSKTKNIDDIPPEIKEEMIQLYHDLPGIENEYKLIDKIGEGTFSSVYKAKDITGKITKKFASHFWNYGSNYVALKKIYVTSSPQRIYNELNLLYIMTGSSRVAPLCDAKRVRDQVIAVLPYYPHEEFRTFYRDLPIKGIKKYIWELLRALKFVHSKGIIHRDIKPTNFLFNLELGRGVLVDFGLAEAQMDYKSMISSQNDYDNYANTNHDGGYSMRNHEQFCPCIMRNQYSPNSHNQTPPMVTIQNGKVVHLNNVNGVDLTKGYPKNETRRIKRANRAGTRGFRAPEVLMKCGAQSTKIDIWSVGVILLSLLGRRFPMFQSLDDADSLLELCTIFGWKELRKCAALHGLGFEASGLIWDKPNGYSNGLKEFVYDLLNKECTIGTFPEYSVAFETFGFLQQELHDRMSIEPQLPDPKTNMDAVDAYELKKYQEEIWSDHYWCFQVLEQCFEMDPQKRSSAEDLLKTPFFNELNENTYLLDGESTDEDDVVSSSEADLLDKDVLLISE
notes: Cdc7, S. cerevisiae; Subunit as it stands in DDK in the DH-DDK cryo-EM structure; also called Cdc7 catalytic subunit of DDK; source: S. cerevisiae, overexpressed with CBP-Dbf4, purified as DDK
Take B2: the binding result with Mcm4 and with Dbf4 was “binds” in each case.

Turning to B3, the binding result with Mcm2 and with Mcm4 was “binds” throughout.
